Source: US20140286963A1

Key:
[1] = target: murine BACE1 ECD (amino acids 1-457) (murine) (UniProt P56818); test: SPR (BIAcore-3000), IgG captured by anti-human Fc antibody, BACE1 ECD injected, 25 C, pH 7.0
[2] = target: murine BACE1 ECD (amino acids 1-457) (murine) (UniProt P56818); test: SPR (BIAcore-3000), second unlabelled row under Mouse, IgG captured by anti-human Fc antibody, pH 7.0

Chain of murine BACE1 ECD (amino acids 1-457) (murine) (P56818 22-457 limits assumed, form in doubt): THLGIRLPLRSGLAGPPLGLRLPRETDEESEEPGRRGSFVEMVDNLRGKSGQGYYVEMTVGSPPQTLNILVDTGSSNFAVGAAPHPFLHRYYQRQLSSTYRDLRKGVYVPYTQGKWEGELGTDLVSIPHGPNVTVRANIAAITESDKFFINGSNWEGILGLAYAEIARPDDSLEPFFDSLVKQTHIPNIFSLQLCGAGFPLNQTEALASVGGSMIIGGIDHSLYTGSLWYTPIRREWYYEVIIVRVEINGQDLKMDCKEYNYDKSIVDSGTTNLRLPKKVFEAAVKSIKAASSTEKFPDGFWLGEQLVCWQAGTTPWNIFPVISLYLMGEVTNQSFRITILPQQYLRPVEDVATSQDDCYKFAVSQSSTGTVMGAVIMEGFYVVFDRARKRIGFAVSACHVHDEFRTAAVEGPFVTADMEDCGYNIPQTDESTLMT

- Kd [1]: 2.1 nM
- koff [1]: 0.00029 s⁻¹
- kon [1]: 140000 M⁻¹ s⁻¹
- Kd [2]: 1.4 nM
- koff [2]: 0.000141 s⁻¹
- kon [2]: 101000 M⁻¹ s⁻¹
B1: YW412.8.31 anti-BACE1 human IgG (antibody, V domains shown)
VH: EVQLVESGGGLVQPGGSLRLSCAASGFTFLGYGIHWVRQAPGKGLEWVGWISPAGGSTDYADSVKGRFTISADTSKNTAYLQMNSLRAEDTAVYYCARGPFSPWVMDYWGQGTLVTVSS
VL: DIQMTQSPSSLSASVGDRVTITCRASQDVSTAVAWYQQKPGKAPKLLIYSASFLYSGVPSRFSGSGSGTDFTLTISSLQPEDFATYYCQQFPTYLPTFGQGTKVEIK
